Results on ten molecules are retold here after patent publication US12624123B2, “Compositions and methods for reducing off-target toxicity of antibody drug conjugates” (The Research Foundation for The State University of New York, priority 2019, dated 2026).

Where “and” joins values, the source holds several entries; their conditions need not be identical. Equal values may be shown once. Read-outs that look alike come from different tables or passages of the source.

The subject of one data set is Lovo cells. Description: MTT cytotoxicity of DM1 and DM4 on Lovo cells. Particulars: for IC50: DM1 alone, read-out: IC50 of DM1. The data set is classed as cell-based. The procedure: Log-phase Lovo or MOLM-14 cells were seeded in 96-well microtiter plates at a density of 5,000 cells/well, in 100 μL or 70 μL of culture medium, respectively. […] MOLM-14 cells were re-suspended with treatment solutions, where 100 μL of cell-treatment suspension was aliquoted into wells of a 96-well plate for 24 h. Treatment solutions consisted of DM-4 with or without purified anti-drug sdAb. For MOLM-14 cells, 10 μL of MTT solution (5 mg/mL in pH 7.4 1× PBS) was added directly to wells following treatment incubation. For adherent cells, treatment media was aspirated from wells and cells were washed three times with 100 μL of fresh media. Following the final wash, 100 μL of complete media and 25 μL of MTT solution were added to each well. Cells were incubated for 4 h in order to allow cells to reduce MTT to formazan dye. Once MTT was reduced, 100 μL of 10% SDS prepared in 0.01 M HCl was added to each well and incubated overnight to solubilize the formazan crystals. Formazan dye was measured at 570 nm and normalized by cell debris at 690 nm.

Data set [1] has as its system SK-BR-3 cells. Description: MTT cytotoxicity assay in SK-BR-3 cells. The data set is classed as cell-based.
A further data set deals with NCI-N87 cells. Description: Cell cytotoxicity with exatecan and trastuzumab deruxtecan, NCI-N87 cells. In kind it is cell-based. As to conditions: free exatecan alone. The procedure: Cells were incubated with the drug mixture for 24 hours at 37° C., 5% CO2. After incubation drug containing cell culture media was aspirated and 250 μL of fresh RPMI was added, allowing cells to grow for another 4 days. Then cell culture media was aspirated and 125 μL of RPMI with a final concentration of 1 mg/ml MTT was added followed by a four-hour incubation. MTT crystals were dissolved in 0.01 M HCL/10% SDS overnight at 37° C. followed by absorbance reading at 570 nm (corrected to 640 nm).

In data set [2] the test system is SK-BR-3 cells. Description: MTT cytotoxicity assay in SK-BR-3 cells. In kind it is cell-based. As to conditions: 24 h exposure, 10 μM sdAb. The procedure:
Positive clone sdAbs' DNA in pComb3XSS plasmid was isolated and transferred into pET-22b expression vector in SHuffle cells for expression. SK-BR-3 cells were used to test the anti-DM4 sdAbs effect on DM4 cytotoxicity. Briefly, 2,500 cells/well were seeded into a 96-well plate and allowed to adhere for 24 h before cell culture media was aspirated and replaced with 100 μL of fresh media solution containing with or without 10 μM of anti-DM4 sdAb and a range of DM4 concentration for another 24 h exposure period. The cells were then washed 2 times before replacing with fresh media and allowed to grow for additional 72 h.

The nature of data set [3]: Competitive ELISA with free DM4. In kind it is binding. Particulars: for Kd: free DM4, read-out: Estimated KD; for IC50: read-out: Estimated binding affinity IC50 to free DM4. As for the experimental part: To determine the binding affinity of the anti-DM4 sdAbs to DM4-conjugates and free DM4, indirect ELISA and competitive ELISA were employed. Briefly, ELISA plate were coated overnight with 100 μL of neutravidin at different concentration ranging from 1 μg/mL to 10 μg/mL. After blocking with 200 μL of 2% skimmed milk-PBST for 1 h, 100 μL of 1 μM biotin-DM4 solution was added into each well and incubated for 30 min, then 100 μL of purified anti-DM4 sdAb solution at concentration ranging from 0.1 nM to 1 μM was added and incubated for 1 h. Bound sdAbs were detected with HRP conjugated anti-His antibody and TMB substrate. After the linear range of binding was determined via the indirect ELISA, a concentration of anti-DM4 sdAb near the IC50 of binding was selected to proceed with competitive ELISA. For the competitive ELISA, anti-DM4 sdAb concentration was held constant as determined from the indirect ELISA and incubated with increasing concentration of DM4 ranging from 0.1 nM to 1 μM.

With `COc1cc2cc(c1Cl)N(C)C(=O)C[C@H](OC(=O)[C@H](C)N(C)C(=O)CCS)[C@]1(C)O[C@H]1[C@H](C)[C@@H]1C[C@@](O)(NC(=O)O1)[C@H](OC)/C=C/C=C(\C)C2` [DM1], the IC50 in the data set on Lovo cells (6 h exposure) was 30.5 nM and 22.1 nM; in the data set with Lovo cells (24 h exposure), 3.07 nM and 2.12 nM; in the data set on SK-BR-3 cells [1] (24 h exposure, DM1 alone, read-out: IC50 of DM1), 4.43 nM.

Take `CC[C@@]1(O)C(=O)OCc2c1cc1n(c2=O)Cc2c-1nc1cc(F)c(C)c3c1c2[C@@H](N)CC3` [exatecan, reference compound]: the IC50 in the data set on NCI-N87 cells (Homo sapiens, NCI-N87, NCI-N87 cells) amounted to 1.5 nM; in the data set on NCI-N87 cells (NCI-N87 cells) it was 2.1 nM.

As to T-DM1 [reference compound], the IC50 in the data set on SK-BR-3 cells [1] (24 h, without DMFH1, read-out: IC50 of T-DM1) was 0.0128 nM.

B1: DF3A4 (protein)
VHH: QVQLQESGGGLVQPGGSLRLSCAASGSIFGISYMGWYRQAPGKQREPVALITSGGSTYYADSVKGRVTISRDNAKKTVYLQMNSLRPEDTSTYYCAAGFYRSDSPNRYDYWGQGTQVTVSS
modifications: DF3A4
Regarding B1, the “fold shift of DM4 IC50” value in the data set with Lovo cells (6 h exposure) turned out to be 5.88 fold. Moreover, in the data set on Lovo cells (6 h exposure, 10 μM sdAb), the “fold shift of DM1 IC50” value came to 14.8 fold.

B2: DMFH2 (protein)
VHH: QVQLQESGGGLVQPGGSLRLSCAASGSTFGISYMGWYRQAPGKQREPVAMITSGGSTYYVDSVKGRVTISRDNAKKTVYLQMNSLRPEDTSTYYCAAGFYRSDSPNRYDYWGQGTQVTVSS
modifications: DMFH2
In the case of B2, the “Fold shifted (DM4 IC50)” value in the data set with SK-BR-3 cells [2] was 150 fold and 149.4 fold. Besides, in data set [3], the Kd was 25 nM and 25.2 nM; the IC50 is 25 nM.

B3: DMFF2 (protein)
VHH: QVQLQESGGGLVQPGGSLRLSCAASGSIFGISYMGWYRQAPGKQREPVALITSGGSTYYVDSVKGRVTISRDNAKKTVYLQMNSLRPEDTSTYYCAAGYYRSDSPNRYDYWGQGTQVTVSS
modifications: DMFF2
For B3, the “Fold shifted (DM4 IC50)” value in the data set on SK-BR-3 cells [2] was 95 fold and 93.65 fold. Further, in data set [3], the Kd is 57 nM and 56.6 nM; the IC50 was 57 nM.

B4: DMOH9: affinity matured Anti-DM1/DM4 sdAb, SEQ ID NO:32 (protein)
VHH: QVQLQESGGGLVQPGGSLRLSCAASGSIFGITYMGWYRQAPGKQREPVAMITSGGSTYYADSVKGRVTISRDNAKKTVYLQMNSLRPEDTSTYYCAAGYYRSDSPNRYDYWGQGTQVTVSS
modifications: DMOH9
B4: in the data set with SK-BR-3 cells [2], the “Fold shifted (DM4 IC50)” value was 210 fold and 209.5 fold. Moreover, in data set [3], the Kd was 20 nM and 19.9 nM; the IC50 was 20 nM.

B5: DMFB8 (protein)
VHH: QVQLQESGGGLVQPGGSLRLSCAASGSIFGISYMGWYRQAPGKQREPVAMITSGGSTYYADSVKGRVTISRDNAKKTVYLQMYSLRPEDTSTYYCAAGYYRSDSPNRYDYWGQGTQVTVSS
modifications: DMFB8
For the molecule B5, the “Fold shifted (DM4 IC50)” value with SK-BR-3 cells [2] was 140 fold and 140.2 fold.

B6: DF4B12 (protein)
VHH: EVQLVESGGGLVQPGGSLRLSCAASGSIFGISYMGWYRQAPGKQREPVALITSGGDTAYGDSVKGRFTISRDNAKNTVYLQMNSLTPEDTSTFYCAAGFYRSDSPNRYDYWGQGTQVTVSS
modifications: DF4B12
As to B6, the “fold shift of DM4 IC50” value with Lovo cells (6 h exposure) was 15.5 fold; with Lovo cells (24 h exposure, 10 μM sdAb), 8.66 fold and 9.4 fold. Also, the “fold shift of DM1 IC50” value in the data set with Lovo cells (6 h exposure, 10 μM sdAb) is 53 fold.

B7: DMOF8 (protein)
VHH: QVQLQESGGGLVQPGGSLRLSCAASGSIFGISYMGWYRQAPGKQREPVAMITSSGSTYYADSVRGRVTISRANAKKTVYLQMNSLRPEDTSTYYCAAGYYRSDSPNRYDYWGQGTQVTVSS
modifications: DMOF8
In the case of B7, the “Fold shifted (DM4 IC50)” value with SK-BR-3 cells [2] was 104 fold and 104.1 fold. Also, in data set [3], the Kd was 26 nM and 26.2 nM; the IC50 is 26 nM.
